# Key:
# [1] = system: NRVM; experiment: TUNEL apoptosis of NRVMs under hypoxic conditions; assay type: cell-based, rat; settings: hypoxic conditions for 24 hours; agent alone
# [2] = system: cardiomyocytes (CM); experiment: CM division lineage tracing in α-MHC-MADM mice post-MI; assay type: in vivo, mouse
# Method: All animal procedures were performed under protocols approved by the Temple University Animal Care and Use Committee. Male and female C57BL6 mice were used. Different modRNAs (100 μg/heart) were injected directly into the myocardium in open chest surgery. Three to ten animals used for each experiment. For mice survival, C57BL6 mice (10-12-weeks-old) treated with Luc or PSAT1 modRNAs (n=10) post induction of MI and were followed for the indicated time. Deaths were monitored and documented over time. Tamoxifen-inducible CM-restricted MADM mice (α-MHC-MADM mice) mice were generated by crossing MADM mice (Jackson laboratory) to […].^Tg(Myh6-cre/Esr1*) 1Jmk/J (Cat no. 005657) mice to get α-MHC-MADM mice (Yuko, A. E., et al., 2021, Redox Biology, 47:102162). Tamoxifen (Sigma-Aldrich) was dissolved in sesame oil at 10 mg/ml as stock solution. To induce Cre activation, tamoxifen was administered to mice by intraperitoneal (IP) injection five times (48 h interval between administrations) at 40 mg/kg body weight for adult mice (Yuko, A. E., et al., 2021, Redox Biology, 47:102162). The tissues were harvested at mentioned time for analysis.
# To analyze the cardiomyocyte division in vivo post-MI, cardiomyocyte specific mosaic analysis with double markers (MADM) mice, generated as described previously, were used (Yuko, A. E., et al., 2021, Redox Biology, 47:102162). The CM-specific transgenic mice were generated by crossing MADM mice (Jackson laboratory) to B6.FVB (129)-A1cf.^Tg(Myh6-cre/Esr1*) 1 Jmk/J (Cat no. 005657) mice to get α-MHC-MADM mice. In the MADM system, because of interchromosomal Cre-loxP recombination after S phase of the cell cycle, the daughter cells will get labeled (single colored) with either GFP (Green) or RFP (Red). The MADM single-labeling can only be attained by end of the cell cycle through cytokinesis. The inducible MADM system warrants temporal control of recombination and offers direct evidence for cell division. […]
# [3] = system: PSAT1; experiment: PSAT1 protein expression in NRVM after modRNA transfection; assay type: cell-based, rat; settings: in vitro modRNA transfection
# [4] = system: β-catenin; experiment: β-catenin immunostaining in CM nucleus and cytoplasm; assay type: cell-based, rat; settings: NRVM; 48 hours after modRNA
# Method: Mice hearts were harvested, weighed, and fixed in 4% PFA/PBS overnight on shaker and then washed with PBS for 1 hour and incubated in 30% sucrose/PBS at 4° C. for 12-18 hours. Hearts were then fixed in OCT and frozen at −80° C. (Magadum A., et al., Circulation. 2020, 141 (15): 1249-1265). Transverse heart sections (6-8 μm) were made using a cryostat. Frozen sections were rehydrated in PBS for 5-10 min followed by permeabilization with PBS with 0.1% Triton™ X100 (PBST) for 7-8 min. Heart sections were then treated with 3% H2O2 for 5 min and washed (3×5 min) with PBST. The samples were then blocked with PBS+10% Donkey normal serum+0.1% Triton™ X100 (PBSST) for 1 hour at room temperature. Primary antibodies (see complete list of primary antibodies used for this Example in Table 2 below) diluted in PBST were added and incubated overnight at 4° C. […] For immunostaining with wheat germ agglutinin (WGA) for CM size quantification, images were captured at 40× magnification, and ImageJ was used to determine the area of each cell. Quantitative analyses involved counting of multiple fields from 5-8 mouse hearts per group, and 3-4 sections/heart (˜50 cells per field assessed, for a total ˜250 cells per sample). […] BrdU positive CMs were counted in multiple fields from three independent samples per group and 3 sections/heart. The total number of CMs counted was ˜1-1.5×10^3 CMs per section. […]
molecule,measurement,setting,value
"PSAT1 modRNA: modified mRNA with N1-methylpseudouridine, transcribed in vitro, encoding phosphoserine aminotransferase 1 (ORF SEQ ID NO: 1, RNA SEQ ID NO: 2) (nucleic acid, N1-methylpseudouridine) AUGGAAGCCACCAAGCAAGUGGUUAACUUUGGGCCCGGGCCUGCCAAGCUGCCACACUCGGUAUUGUUGGAGAUCCAGAAGCAGCUACUAGACUACAGAGGACUCGGCAUCAGUGUGCUCGAAAUGAGUCACAGGUCAUCAGAUUUUGCCAAGAUUAUUGGCAAUACAGAGAAUCUUGUGAGGGAAUUGCUAGCUGUUCCCAACAACUACAAGGUGAUCUUUGUACAAGGAGGUGGGUCUGGCCAGUUCAGUGCUGUCCCCUUAAAUCUGAUUGGCCUGAAAGCUGGAAGGAGUGCUGACUACGUGGUGACCGGAGCUUGGUCAGCUAAGGCUGCGGAAGAAGCCAAGAAGUUUGGAACGGUGAACAUUGUCCACCCUAAACUUGGAAGUUACACAAAAAUUCCAGACCCAAGCACCUGGAACCUCAACCCGGACGCCUCCUAUGUAUACUUCUGUGCAAACGAGACUGUGCACGGGGUGGAGUUUGACUUCGUACCUGACGUCAAGGGAGCGGUGCUGGUCUGUGACAUGUCCUCAAACUUCUUAUCCAGGCCGGUGGAUGUUUCCAAGUUUGGUGUGAUUUUCGCUGGUGCUCAGAAGAAUGUUGGCUCUGCCGGGGUGACGGUGGUGAUUGUCCGGGAUGACCUGCUGGGGUUCUCGCUCAGAGAGUGCCCAUCAGUCCUUGACUACAAAGUGCAGGCUGGGAACAACUCUUUGUAUAACACACCUCCGUGCUUCAGCAUCUACGUCAUGGGCAUGGUCCUGGAAUGGAUCAAGAACAACGGCGGGGCCGCAGCCAUGGAGAAGCUCAGCUCCAUCAAAUCCCAAAUGAUUUAUGAGAUCAUUGAUAAUUCUCAAGGAUUUUAUGUAUGCCCAGUGGAGCGCCAGAAUAGAAGCAGGAUGAACAUCCCAUUUCGCAUUGGCAACGCCAAAGGAGACGAAGCUUUGGAAAAGCGGUUUCUUGACAAGGCGGUAGAACUCAACAUGAUCUCCUUGAAGGGGCACAGGUCAGUGGGAGGCAUUCGUGCCUCUCUGUAUAACGCUGUCACAACCGAAGACGUUGAGAAGCUGGCGGCCUUCAUGAAGAAUUUCUUGGAGAUGCAUCAGCUGUGA",NRVM / CM apoptosis (TUNEL+ CMs),[1],significantly inhibited
same,location of the increase in single color CMs in the heart,[2]; 1-month post-MI,mainly in the infarct border zone
same,% single color (green or red positive) CMs compared to total labeled CMs,"[2]; 1-month post-MI, compared to Luc modRNA",increased
same,nucleation of the majority of single color CMs,[2]; 28 days post-MI,mononucleated
same,PSAT1 protein expression in NRVM (onset and duration),[3],achieved within hours of administration and lasted up to several days
same,stabilized β-catenin localisation to CM nuclei,[4],translocated
same,β-catenin stabilization,[4],significantly induced
